The target of assay [1] is human serum albumin (human) (UniProt P02768). In words: sandwich ELISA, HSA coated at 10 µg/ml, control at 1 µM, detection with anti-FITC antibody.
Assay [2] addresses interleukin-1 type 1 receptor (human) (UniProt P14778). The assay can be described thus: cell-based or functional assay.
Assay [3] has as its target human serum albumin (human) (UniProt P02768).

We go through three substances from US20090111745A1.

Read-outs that look alike come from different tables or passages of the source.

Chain of uncoupled saporin (enzyme) (P20656 25-277): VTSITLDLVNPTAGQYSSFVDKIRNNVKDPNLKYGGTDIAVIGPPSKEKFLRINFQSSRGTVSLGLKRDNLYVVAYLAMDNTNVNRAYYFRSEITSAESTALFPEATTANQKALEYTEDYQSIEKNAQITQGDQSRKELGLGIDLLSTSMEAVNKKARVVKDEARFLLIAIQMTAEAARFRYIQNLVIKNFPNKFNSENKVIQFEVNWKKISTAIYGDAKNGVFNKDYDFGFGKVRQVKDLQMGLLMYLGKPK
Chain of recombinant human IL-1ra (R&D systems) (P18510 other isoform, or with tags, fused parts or gaps): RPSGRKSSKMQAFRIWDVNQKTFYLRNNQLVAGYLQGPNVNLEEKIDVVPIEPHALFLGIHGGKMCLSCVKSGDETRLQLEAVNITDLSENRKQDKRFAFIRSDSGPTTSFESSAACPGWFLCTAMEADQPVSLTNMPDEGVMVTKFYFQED
Chain of interleukin-1 type 1 receptor (human) (P14778 18-569): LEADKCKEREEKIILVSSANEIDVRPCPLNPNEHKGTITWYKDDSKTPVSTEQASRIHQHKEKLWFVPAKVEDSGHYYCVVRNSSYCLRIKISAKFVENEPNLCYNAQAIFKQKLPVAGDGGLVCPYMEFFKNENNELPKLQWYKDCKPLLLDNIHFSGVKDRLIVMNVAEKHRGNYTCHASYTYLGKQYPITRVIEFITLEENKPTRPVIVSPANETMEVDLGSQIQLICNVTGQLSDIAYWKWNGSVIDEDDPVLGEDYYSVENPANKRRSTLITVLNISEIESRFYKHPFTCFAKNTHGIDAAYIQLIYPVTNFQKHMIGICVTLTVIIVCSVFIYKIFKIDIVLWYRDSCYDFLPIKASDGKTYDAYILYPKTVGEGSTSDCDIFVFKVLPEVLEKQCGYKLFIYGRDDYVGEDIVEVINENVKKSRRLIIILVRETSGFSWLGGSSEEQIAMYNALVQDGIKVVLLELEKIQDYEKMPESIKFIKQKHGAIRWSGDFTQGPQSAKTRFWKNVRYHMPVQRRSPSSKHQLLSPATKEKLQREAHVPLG

control FITC coupled antibody: in assay [1], the OD600 came to 0.049 OD600. Turning to “recombinant human IL-1ra (R&D systems) (from UniProt P18510 26-176) (ligand)”, the ND50 (neutralizing dose 50), IL-1-induced IL-8 secretion by MRC-5 cells in assay [2] amounted to 0.5 nM. In assay [3], uncoupled saporin (enzyme) displayed an OD600 of 0.079 OD600.
